Source: article PMC8191293

B1: peripheral myelin protein 22 (PMP22): L16P/N41Q (protein)
parent chain: MLLLLLSIIVLHVAVPVLLFVSTIVSQWIVGNGHATDLWQNCSTSSSGNVHHCFSSSPNEWLQSVQATMILSIIFSILSLFLFFCQLFTLTKGGRFYITGIFQILAGLCVMSAAAIYTVRHPEWHLNSDYSYGFAYILAWVAFPLALLSGVIYVILRKRE
B2: peripheral myelin protein 22 (PMP22): G93R/N41Q (protein)
parent chain: MLLLLLSIIVLHVAVLVLLFVSTIVSQWIVGNGHATDLWQNCSTSSSGNVHHCFSSSPNEWLQSVQATMILSIIFSILSLFLFFCQLFTLTKRGRFYITGIFQILAGLCVMSAAAIYTVRHPEWHLNSDYSYGFAYILAWVAFPLALLSGVIYVILRKRE
B3: peripheral myelin protein 22 (PMP22): UGGT1 KO (protein)
parent chain: MLLLLLSIIVLHVAVLVLLFVSTIVSQWIVGNGHATDLWQNCSTSSSGNVHHCFSSSPNEWLQSVQATMILSIIFSILSLFLFFCQLFTLTKGGRFYITGIFQILAGLCVMSAAAIYTVRHPEWHLNSDYSYGFAYILAWVAFPLALLSGVIYVILRKRE
B4: peripheral myelin protein 22 (PMP22): N41Q (protein)
parent chain: MLLLLLSIIVLHVAVLVLLFVSTIVSQWIVGNGHATDLWQNCSTSSSGNVHHCFSSSPNEWLQSVQATMILSIIFSILSLFLFFCQLFTLTKGGRFYITGIFQILAGLCVMSAAAIYTVRHPEWHLNSDYSYGFAYILAWVAFPLALLSGVIYVILRKRE
B5: peripheral myelin protein 22 (PMP22): STT3B KO (protein)
parent chain: MLLLLLSIIVLHVAVLVLLFVSTIVSQWIVGNGHATDLWQNCSTSSSGNVHHCFSSSPNEWLQSVQATMILSIIFSILSLFLFFCQLFTLTKGGRFYITGIFQILAGLCVMSAAAIYTVRHPEWHLNSDYSYGFAYILAWVAFPLALLSGVIYVILRKRE
B6: peripheral myelin protein 22 (PMP22): NGI-1 (protein)
parent chain: MLLLLLSIIVLHVAVLVLLFVSTIVSQWIVGNGHATDLWQNCSTSSSGNVHHCFSSSPNEWLQSVQATMILSIIFSILSLFLFFCQLFTLTKGGRFYITGIFQILAGLCVMSAAAIYTVRHPEWHLNSDYSYGFAYILAWVAFPLALLSGVIYVILRKRE
B7: peripheral myelin protein 22 (PMP22): T118M/N41Q (protein)
parent chain: MLLLLLSIIVLHVAVLVLLFVSTIVSQWIVGNGHATDLWQNCSTSSSGNVHHCFSSSPNEWLQSVQATMILSIIFSILSLFLFFCQLFTLTKGGRFYITGIFQILAGLCVMSAAAIYMVRHPEWHLNSDYSYGFAYILAWVAFPLALLSGVIYVILRKRE
B8: peripheral myelin protein 22 (PMP22): C19 (protein)
parent chain: MLLLLLSIIVLHVAVLVLLFVSTIVSQWIVGNGHATDLWQNCSTSSSGNVHHCFSSSPNEWLQSVQATMILSIIFSILSLFLFFCQLFTLTKGGRFYITGIFQILAGLCVMSAAAIYTVRHPEWHLNSDYSYGFAYILAWVAFPLALLSGVIYVILRKRE
B9: peripheral myelin protein 22 (PMP22): STT3A KO (protein)
parent chain: MLLLLLSIIVLHVAVLVLLFVSTIVSQWIVGNGHATDLWQNCSTSSSGNVHHCFSSSPNEWLQSVQATMILSIIFSILSLFLFFCQLFTLTKGGRFYITGIFQILAGLCVMSAAAIYTVRHPEWHLNSDYSYGFAYILAWVAFPLALLSGVIYVILRKRE
B10: peripheral myelin protein 22 (PMP22): A67T/N41Q (protein)
parent chain: MLLLLLSIIVLHVAVLVLLFVSTIVSQWIVGNGHATDLWQNCSTSSSGNVHHCFSSSPNEWLQSVQTTMILSIIFSILSLFLFFCQLFTLTKGGRFYITGIFQILAGLCVMSAAAIYTVRHPEWHLNSDYSYGFAYILAWVAFPLALLSGVIYVILRKRE

What was measured:
[1] = flow cytometry, total cellular PMP22, HEK293; conditions: glycan lost; control: same variant with N41 intact
[2] = flow cytometry, cell surface PMP22, rat Schwann cells; conditions: glycan lost; control: same variant with N41 intact
[3] = flow cytometry, total PMP22, primary rat Schwann cells; conditions: glycan lost; control: same variant with N41 intact
[4] = single-cell flow cytometry, surface/total PMP22, HEK293; conditions: glycan lost
[5] = flow cytometry, trafficking efficiency, rat Schwann cells; conditions: glycan lost; control: same variant with N41 intact
[6] = flow cytometry, cell surface PMP22, HEK293; conditions: glycan lost; control: same CMTD variant with N41 intact
[7] = flow cytometry, total cellular PMP22; conditions: glycan changed form; control: WT PMP22 in parental HEK293
[8] = flow cytometry, trafficking efficiency; conditions: glycan changed form; control: WT PMP22 in parental HEK293
[9] = flow cytometry, normalized trafficking efficiency of WT PMP22; conditions: glycan lost; control: WT PMP22 in untreated or DMSO-treated HEK293
[10] = flow cytometry, trafficking efficiency of CMTD PMP22 variants; conditions: glycan lost; control: same CMTD variant in untreated HEK293

Protein	expression_or_secretion [1]	localisation_or_trafficking [6]	localisation_or_trafficking, fold_change [9]	localisation_or_trafficking [10]	other results
B1	no change				localisation_or_trafficking [2]: increases; expression_or_secretion [3]: no change; localisation_or_trafficking, other: trafficking efficiency ([4]; control: L16P PMP22): increases, 34 ± 10 vs 3 ± 1; localisation_or_trafficking [5]: increases
B2	increases	increases			
B3					expression_or_secretion [7]: decreases; localisation_or_trafficking [8]: decreases
B4					localisation_or_trafficking, other: trafficking efficiency ([4]; control: wild type): increases, 53 ± 7 vs 19 ± 5
B5			increases	no change	
B6			increases	increases	
B7	increases	increases			
B8			increases		
B9			no change	no change	
B10	increases	increases			
